Holding throughout (assay): IEDB peptide-MHC binding, purified MHC/competitive/radioactivity; filed as Kd, often an IC50 or EC50 that approximates it; ≥ and ≤ were set here for values at or beyond the usual limits of such assays
Experiment [1] deals with HLA-A*03:01.
In experiment [2] the target is HLA-A*68:01.
The target in experiment [3] is HLA-A*11:01.
For experiment [4], the target named is HLA-A*33:01.
Experiment [5] deals with HLA-A*31:01.
The mark [6] stands for this setting: source organism: Mammarenavirus juninense.
[7] abbreviates: source organism: Lymphocytic choriomeningitis virus (strain Armstrong).
The mark [8] stands for this setting: source organism: Vaccinia virus WR.
Where [9] appears, read: source organism: SARS coronavirus Tor2.
Where [10] appears, read: source organism: Mammarenavirus machupoense.
The mark [11] stands for this setting: source organism: SARS coronavirus ZJ0301.
Setting [12] is: source organism: Lassa virus Josiah.
[13] abbreviates: source organism: Mammarenavirus brazilense.

Our source for the Kd values is the Immune Epitope Database (IEDB).

The term Kd denotes a measure of binding affinity in units of concentration.

With EKYGHLCKYH, the Kd in experiment [1] (setting [6]) is not below 70000 nM; in experiment [2] (setting [6]), not below 70100 nM; in experiment [3] (setting [6]) it was not below 69700 nM; in experiment [4] (setting [6]) it was not below 70000 nM; in experiment [5] (setting [6]), not below 70000 nM.
For the sequence TLGNFSWFPH, the Kd is 2150 nM in experiment [1] (setting [7]); 8980 nM in experiment [2] (setting [7]); 1380 nM in experiment [3] (setting [7]); 12600 nM in experiment [4] (setting [7]); 570 nM in experiment [5] (setting [7]).
For NISFKSINK, the Kd in experiment [1] (setting [8]) is 14.9 nM; in experiment [2] (setting [8]), 119 nM; in experiment [3] (setting [8]) it was 41.3 nM; in experiment [4] (setting [8]), 3180 nM; in experiment [5] (setting [8]), 9770 nM.
Taken in the same sequence, the figures for YLGVNNLPY were 1300 nM, not below 52700 nM, 1490 nM, not below 77700 nM and not below 77900 nM.
Regarding TTTIKPVSYK, the Kd came to 11.6 nM in experiment [1] (setting [9]); 99.1 nM in experiment [2] (setting [9]); 20.4 nM in experiment [3] (setting [9]); 10600 nM in experiment [4] (setting [9]); 1460 nM in experiment [5] (setting [9]).
Take TTDDLVKSY: the Kd was not below 53000 nM in experiment [1] (setting [8]); 12100 nM in experiment [2] (setting [8]); 747 nM in experiment [3] (setting [8]); 18100 nM in experiment [4] (setting [8]); 4700 nM in experiment [5] (setting [8]).
As for TMLRNSELCH, the Kd was 10200 nM in experiment [1] (setting [10]); not below 70100 nM in experiment [2] (setting [10]); not below 69700 nM in experiment [3] (setting [10]); not below 70000 nM in experiment [4] (setting [10]); 8820 nM in experiment [5] (setting [10]).
Take LLACTDPSER: the Kd in experiment [1] (setting [8]) is not below 70100 nM; in experiment [2] (setting [8]), 856 nM; in experiment [3] (setting [8]), not below 37000 nM; in experiment [4] (setting [8]), 2420 nM; in experiment [5] (setting [8]), 1260 nM.
DTVWEVQGYK: the Kd in experiment [1] (setting [9]) came out at 58.4 nM; in experiment [2] (setting [9]), 0.881 nM; in experiment [3] (setting [9]), 74.6 nM; in experiment [4] (setting [9]) it was 1680 nM; in experiment [5] (setting [9]) it was 7500 nM.
The corresponding values for AVIIRGHLR are not below 33400 nM, 2640 nM, 2240 nM, not below 28200 nM and 136 nM.
SSVQLSNNK: the Kd in experiment [1] (setting [8]) is 2200 nM; in experiment [2] (setting [8]) it was 19.9 nM; in experiment [3] (setting [8]), 5.21 nM; in experiment [4] (setting [8]), not below 77700 nM; in experiment [5] (setting [8]), 4580 nM.
The corresponding values for VTIKYSNDNR are 10300 nM, 2.33 nM, 53.1 nM, 6710 nM and 402 nM.
On to NATFFIFNK, for which the Kd in experiment [1] (setting [9]) stood at 386 nM; in experiment [2] (setting [9]) it was 19.5 nM; in experiment [3] (setting [9]), 87.3 nM; in experiment [4] (setting [9]) it was 87.3 nM; in experiment [5] (setting [9]) it was 1710 nM.
Regarding GIEFADNDR, the Kd stood at 2420 nM in experiment [1] (setting [8]); 762 nM in experiment [2] (setting [8]); 1740 nM in experiment [3] (setting [8]); 6540 nM in experiment [4] (setting [8]); 7550 nM in experiment [5] (setting [8]).
Taken in the same sequence, the figures for IITVGMLIY were 1520 nM, 608 nM, 6770 nM, 1150 nM and 1080 nM.
For QFKQDSKYSH, the Kd in experiment [1] (setting [7]) was not below 70000 nM; in experiment [2] (setting [7]), not below 70100 nM; in experiment [3] (setting [7]), not below 69700 nM; in experiment [4] (setting [7]), 2910 nM; in experiment [5] (setting [7]) it was 13000 nM.
Take LLNSNALLR: the Kd in experiment [1] (setting [11]) stood at 14.7 nM; in experiment [2] (setting [11]) it was 687 nM; in experiment [3] (setting [11]) it was 222 nM; in experiment [4] (setting [11]) it was 6980 nM; in experiment [5] (setting [11]), 148 nM.
NLCTHSFRK: the Kd in experiment [1] (setting [9]) was 2430 nM; in experiment [2] (setting [9]), not below 24400 nM; in experiment [3] (setting [9]), 7900 nM; in experiment [4] (setting [9]), 9700 nM; in experiment [5] (setting [9]), 13600 nM.
For TCQGSDDIRK, the Kd in experiment [1] (setting [12]) was not below 70000 nM; in experiment [2] (setting [12]), 5710 nM; in experiment [3] (setting [12]), 7000 nM; in experiment [4] (setting [12]), not below 70000 nM; in experiment [5] (setting [12]), not below 49900 nM.
With QAEPSLYGRH, the Kd is not below 70000 nM in experiment [1] (setting [13]); not below 70100 nM in experiment [2] (setting [13]); not below 69700 nM in experiment [3] (setting [13]); not below 70000 nM in experiment [4] (setting [13]); not below 20000 nM in experiment [5] (setting [13]).
